These results are taken from patent publication US20040106545A1 (MCGILL UNIVERSITY, published 2004).

Common to all, as to assay: cell-based or functional assay
For assay [1], the target named is T1, chick N-cadherin expressed on transfected 3T3 cells (chick, UniProt P10288 165-912).
T1 sequence (looked up): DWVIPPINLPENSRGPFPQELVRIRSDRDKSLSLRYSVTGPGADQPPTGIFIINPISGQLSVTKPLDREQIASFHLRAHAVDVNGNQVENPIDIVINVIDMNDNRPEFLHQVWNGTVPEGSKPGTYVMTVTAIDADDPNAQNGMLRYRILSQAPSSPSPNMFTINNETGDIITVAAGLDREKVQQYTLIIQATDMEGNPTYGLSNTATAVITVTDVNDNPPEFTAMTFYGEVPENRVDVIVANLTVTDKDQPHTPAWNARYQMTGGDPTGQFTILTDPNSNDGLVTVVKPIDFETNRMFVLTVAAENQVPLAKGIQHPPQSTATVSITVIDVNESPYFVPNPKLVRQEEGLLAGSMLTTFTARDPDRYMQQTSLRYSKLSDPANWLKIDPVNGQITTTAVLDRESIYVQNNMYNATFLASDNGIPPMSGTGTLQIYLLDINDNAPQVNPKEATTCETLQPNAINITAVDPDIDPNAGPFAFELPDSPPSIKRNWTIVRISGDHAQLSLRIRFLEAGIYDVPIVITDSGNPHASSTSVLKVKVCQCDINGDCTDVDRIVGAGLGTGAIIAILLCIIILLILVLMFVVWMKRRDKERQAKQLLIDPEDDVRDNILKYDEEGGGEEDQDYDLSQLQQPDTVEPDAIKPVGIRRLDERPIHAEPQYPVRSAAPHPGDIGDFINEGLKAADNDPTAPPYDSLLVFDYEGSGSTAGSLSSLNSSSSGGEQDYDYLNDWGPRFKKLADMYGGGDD

Assay [2] has as its target T1, chick N-cadherin expressed on …. This is another data set of the same source.
In assay [3] the target is T2, E-cadherin on Madin Darby canine kidney (MDCK) cells (canine (MDCK cells), UniProt F1PAA9 157-885).
T2 sequence (looked up): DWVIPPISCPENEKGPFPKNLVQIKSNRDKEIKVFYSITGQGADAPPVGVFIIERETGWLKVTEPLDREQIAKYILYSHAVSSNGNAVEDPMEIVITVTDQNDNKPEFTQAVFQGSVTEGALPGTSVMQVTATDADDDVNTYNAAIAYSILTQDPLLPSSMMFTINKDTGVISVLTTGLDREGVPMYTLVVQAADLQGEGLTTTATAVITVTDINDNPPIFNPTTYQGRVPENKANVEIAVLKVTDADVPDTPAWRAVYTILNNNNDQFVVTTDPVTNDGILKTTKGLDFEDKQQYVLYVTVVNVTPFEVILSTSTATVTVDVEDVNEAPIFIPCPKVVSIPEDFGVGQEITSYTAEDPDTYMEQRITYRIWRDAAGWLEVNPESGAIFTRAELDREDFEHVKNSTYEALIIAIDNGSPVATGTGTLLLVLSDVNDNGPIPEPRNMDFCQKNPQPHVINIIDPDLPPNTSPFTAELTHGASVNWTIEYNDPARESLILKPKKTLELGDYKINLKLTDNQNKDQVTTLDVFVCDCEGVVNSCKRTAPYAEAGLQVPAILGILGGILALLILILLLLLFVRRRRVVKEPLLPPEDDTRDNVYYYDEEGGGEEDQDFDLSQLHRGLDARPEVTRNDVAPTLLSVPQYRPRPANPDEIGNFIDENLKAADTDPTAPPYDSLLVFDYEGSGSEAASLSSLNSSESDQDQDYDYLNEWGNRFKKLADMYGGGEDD

For assay [4], the target named is T2, E-cadherin on Madin Darby canine kidney …. The source holds these as a separate data set.
In assay [5] the target is N-cadherin expressed on transfected 3T3 cells (Examples 2 and 21).
The target of assay [6] is T1, chick N-cadherin expressed on …. The source holds these as a separate data set.
Assay [7] has the same target. The source holds these as a separate data set.
For assay [8] the target is unchanged. This is another data set of the same source.
Assay [9] concerns the target human L1 expressed on transfected 3T3 cells (human, UniProt P32004 20-1257).

Like-named read-outs stand apart in the source and are kept apart here. Positions of bridges follow the written chain, without caps; N, C: chain ends.

Sequence of human L1 expressed on transfected 3T3 cells (P32004 20-1257): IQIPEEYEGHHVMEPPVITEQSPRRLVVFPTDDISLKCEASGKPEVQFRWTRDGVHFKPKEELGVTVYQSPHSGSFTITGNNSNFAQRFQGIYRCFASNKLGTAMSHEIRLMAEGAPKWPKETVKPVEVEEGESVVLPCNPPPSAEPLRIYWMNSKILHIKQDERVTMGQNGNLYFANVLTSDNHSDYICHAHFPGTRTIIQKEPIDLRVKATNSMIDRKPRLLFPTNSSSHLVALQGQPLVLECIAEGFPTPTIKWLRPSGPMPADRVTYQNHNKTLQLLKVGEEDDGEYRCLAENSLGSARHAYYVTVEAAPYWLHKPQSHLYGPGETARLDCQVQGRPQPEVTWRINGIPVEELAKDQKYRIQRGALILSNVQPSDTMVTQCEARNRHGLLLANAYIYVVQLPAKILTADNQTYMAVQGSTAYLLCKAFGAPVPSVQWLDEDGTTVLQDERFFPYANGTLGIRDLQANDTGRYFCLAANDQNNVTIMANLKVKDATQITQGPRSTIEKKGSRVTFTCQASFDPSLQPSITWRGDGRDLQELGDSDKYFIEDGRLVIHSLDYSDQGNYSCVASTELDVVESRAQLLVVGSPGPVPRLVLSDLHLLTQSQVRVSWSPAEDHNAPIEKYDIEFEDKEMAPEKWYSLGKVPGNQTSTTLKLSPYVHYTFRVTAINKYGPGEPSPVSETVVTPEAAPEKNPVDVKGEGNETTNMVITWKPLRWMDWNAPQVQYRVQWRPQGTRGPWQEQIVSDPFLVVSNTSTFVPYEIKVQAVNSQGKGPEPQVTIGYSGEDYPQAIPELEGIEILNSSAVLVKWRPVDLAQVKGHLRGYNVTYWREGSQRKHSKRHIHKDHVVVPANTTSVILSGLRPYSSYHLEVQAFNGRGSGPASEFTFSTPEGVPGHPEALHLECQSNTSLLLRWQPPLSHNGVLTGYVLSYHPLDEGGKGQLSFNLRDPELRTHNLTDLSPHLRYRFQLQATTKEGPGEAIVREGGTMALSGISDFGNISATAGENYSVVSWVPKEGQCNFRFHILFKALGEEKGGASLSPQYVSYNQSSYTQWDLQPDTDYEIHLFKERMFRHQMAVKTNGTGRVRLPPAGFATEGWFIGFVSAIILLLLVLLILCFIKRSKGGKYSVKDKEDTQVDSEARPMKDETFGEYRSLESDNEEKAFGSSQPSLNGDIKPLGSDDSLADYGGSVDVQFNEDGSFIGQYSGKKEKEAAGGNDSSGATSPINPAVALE

As to Ac-CHAVYC-NH2 (disulfide 1-6 (inferred)) [N-Ac-CHAVYC-NH2], in assay [1], the “% inhibition of neurite outgrowth (peptide 125 µg/mL)” value came out at 64.9%. Also, the “EC50 for inhibition of neurite outgrowth” value in assay [1] came to 0.128 mM; in assay [2], 0.08 mM.
As to Ac-CHAVCY-NH2 (disulfide 1-5 (inferred)) [N-Ac-CHAVC-Y-NH2], the “EC50, decrease of electrical resistance across MDCK cell monolayer” value (“EC50, decrease” for short) in [3] was 0.21 mM. In addition, the “EC50 for inhibition of neurite outgrowth” value in assay [2] amounted to 0.12 mM.
Ac-CSHAVC-NH2 (disulfide 1-6 (inferred)) [N-Ac-CSHAVC-NH2]: the “EC50, decrease” value in assay [4] stood at 0.02 mM. Also, the “% Inhibition of neurite outgrowth, 250 µg/mL (rat neurons)” value in assay [5] is 0%. Also, the “% inhibition of N-cadherin dependent neurite outgrowth (peptide 250 µg/mL)” value in [6] was determined as 11%.
On to Ac-CHAVC-NH2 (disulfide 1-5 (inferred)) [N-Ac-CHAVC-NH2], for which, in assay [4], the “EC50, decrease” value was 0.27 mM. In assay [5], the “% Inhibition of neurite outgrowth, 250 µg/mL (rat neurons)” value is 65%. Also, in assay [7], the “Percent Inhibition of N-cadherin dependent neurite outgrowth (peptide 250 µg/ml)” value stood at 68.2%. In addition, the “% inhibition of N-cadherin dependent neurite outgrowth (peptide 250 µg/mL)” value in [6] worked out at 68.2%. Also, the “% Inhibition of N-Cadherin Response (peptide 125 µg/ml)” value in [8] was found to be 33.2%. Besides, in assay [9], the “% Inhibition of L1 Response (peptide 125 µg/ml)” value stood at 41.6%. In addition, the “EC50 for inhibition of the N-cadherin response (neurite outgrowth)” value in assay [2] amounted to 0.22 mM.
